We go through 1 molecule from article doi:10.1101/317909.

The target in this series is T1, ZC3H12B PIN-ZnF fragment (human, UniProt Q5HYM0 179-397).
T1 sequence: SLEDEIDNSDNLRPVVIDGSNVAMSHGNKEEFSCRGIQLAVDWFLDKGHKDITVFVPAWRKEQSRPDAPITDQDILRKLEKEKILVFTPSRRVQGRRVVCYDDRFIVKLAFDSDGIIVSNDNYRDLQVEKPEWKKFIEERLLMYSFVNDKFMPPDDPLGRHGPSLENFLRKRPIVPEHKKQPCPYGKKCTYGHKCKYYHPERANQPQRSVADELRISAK
The series can be described thus: X-ray crystallography.

B1: 21-nt HTR-SELEX-enriched RNA (ssRNA)
RNA: AAUGCGACAGUCGGUAGCAUC
modifications: phosphorothioate bond between nt 1 and 2 (5' end)
As for B1, the binding result was “binds”.
